Assay results reported in publication PMC12237034.

Experiments:
[1] = biological target: Coagulation factor XIa; assay: enzyme inhibition kinetics; XIa (0.5 nM) preincubated with peptide 30 min at 37 °C, chromogenic substrate S2366; 50 mM Tris pH 7.4, 140 mM NaCl, 5 mM CaCl2, 0.1% BSA; double reciprocal plots, mixed inhibition
[2] = biological target: Coagulation factor XIa

“Schistosoma Kunitz peptide Shp4 (Schistosoma haematobium peptide-repeat 4) (domain or fragment)” gave a Ki [1] of 3.35 nM, a Ki' (towards the enzyme-substrate complex) [1] of 1.64 nM and an inhibition of XIa activity on a chromogenic substrate, concentration dependent [2] of 7.1 nM.
